Experimental data from the supplement of paper PMC9170038.

Tested on: MS2 coat protein
Test: apparent KD of MS2 coat protein; designed switch direction (-1 OFF switch, 1 ON switch): -1; higher = weaker reporter binding
Summary of the method: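 Each step of the titration lasted 0.8–1.5 h at the lowest concentration and 10–20 min at the highest. The protein, SNAP-549-labelled MS2 coat protein, went from 0.7 or 1.5 nM doubling to 3 µM over RNA switches transcribed on Illumina chips by stalled E. coli RNA polymerase. Normalised cluster fluorescence was curve-fitted, and the per-design median over clusters is given as apparent KD.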

[1] = input ligand: microRNA oligo, concentration not stated
[2] = Eterna round: R95, input ligand: FMN 200 uM
[3] = Eterna round: R95, input ligand: microRNA oligo, concentration not stated
[4] = Eterna round: R95, input ligand: none

Sequence | apparent KD of MS2 coat protein (input ligand: FMN 200 uM) | apparent KD of MS2 coat protein (input ligand: none) | apparent KD of MS2 coat protein [3] | further results
AAGACACAUGAGGAUCACCCAUGUGAGGAUAUUUGAUGCGUACCUACAGGACUGCGAUAAAGAAGGCAUAAGGG [Eternabot (L2) Solution 80] (Eterna round: R97, puzzle: Exclusion 1) | 50.3 nM | 17.7 nM |  | 
AAGAGCAUCGGAGGAUAUGGAGCUGAAACGGCGCUAGAAGGCCGUGCAGUGUAACAUGAGGAUCACCCAUGUAGGGACCUCUAA [EX ng 1 4] (Eterna round: R96, puzzle: Exclusion NG 1) | 244 nM | 104 nM |  | apparent KD of MS2 coat protein [1]: 82.9 nM
AAGAGGUCAGGAUAUACAGGAAGAGAGAGAAGUAGAGGGUAACAUGAGGAUCACCCAUGUAGAAGGGACUAAGA [JR_Exclu2_Sub071] (puzzle: Exclusion 2) |  |  | 48.5 nM | apparent KD of MS2 coat protein [2]: 67.9 nM; apparent KD of MS2 coat protein [4]: 63.1 nM
AAGAGUGCAGGAUAUACUUGGUAGGGUAAGAUGAGUGAGUGACAUGAGGAUCACCCAUGUAGAAGGGCAGAGAG [JR_Exclu2_Sub056] (puzzle: Exclusion 2) |  |  | 107 nM | 
AAGAUACAUGAGGAUCACCCAUGUGAGGAUAUCAGCACGACCGUGAGGUCGAUAAGAAUGAGAAGGCACAAUGG [JL-ex1-4.51] (Eterna round: R97, puzzle: Exclusion 1) | 103 nM | 279 nM |  | 
AAGAUACAUGAGGAUCACCCAUGUGAGGAUAUGAGCACGCCGGUGACGGUGAUAAGAAUCAGAAGGCACAAUGG [JL-ex1-4.32 salish99 mod] (Eterna round: R97, puzzle: Exclusion 1) | 151 nM | 327 nM |  | 
AAGAUGCCAAAGGAUAUCGAAGGAGUGGCGCGGCGAGAAGGUUGGACAUGAGGAUCACCCAUGUGGUGGCUCCC [Usmaarri] (Eterna round: R97, puzzle: Exclusion 6) | 703 nM | 1070 nM |  | 
AAGAUGUGAGGAUAUCACGAGAACGUCACACGGACGCUCUCUGAGAAGGCACAUGAGGAUCACCCAUGUCCAAC [EX4 A.21] (Eterna round: R97, puzzle: Exclusion 4) | 207 nM | 47.2 nM |  | 
AAGCAGUCAGGAUAUCGUUAAUUUAGUUGUUUGUAUUAGUUCGAGAAGGGACAUGAGGAUCACCCAUGUAUGAA [Ex4 #42] (Eterna round: R97, puzzle: Exclusion 4) | 51.5 nM | 48.3 nM |  | 
AAGGAUAGAGGAUAUACAUAGAUACAGAUUCGUGUAGUCCUACAUGAGGAUCACCCAUGUAGAAGGCUAUCCUA [Fiskers Ex 2 - 13] (puzzle: Exclusion 2) |  |  | 11.3 nM | 
AAGGGUACUUUCGGAACGACAUGAGGAUCACCCAUGUAUACUGAGGAUAUCUACUACUAAGGACGGGAGAAGGCAGUGUAAUGU [Ex NG3 #77] (Eterna round: R96, puzzle: Exclusion NG 3) |  |  |  | apparent KD of MS2 coat protein [1]: 13.6 nM
AAGUACCGGUGAGGAUAUUUUUAAUAGAACUUUAUGAUAUACAUGAGGAUCACCCAUGUUACUUUAAAGAAGGCAUCGGAUAAA [Mat - Exclusion NG 2 - Mod of JL - D87] (Eterna round: R96, puzzle: Exclusion NG 2) |  |  |  | apparent KD of MS2 coat protein [1]: 12 nM
AAGUACCGUCACGAUAGUGAUGGUACAACAAGCAAAUACACAUGAGGAUCACCCAUGUCCUCUUUUGCUCGUCUUGU [Sensor 3 - 0] (puzzle: Sensor v3, turn-off variant 2) |  |  | 236 nM | apparent KD of MS2 coat protein [2]: 674 nM; apparent KD of MS2 coat protein [4]: 767 nM
AAGUACCGUCACGAUAGUGAUGGUACAACAAGCAAGUGUACAUGAGGAUCACCCAUGUCCUCUUUUGCUCGUCUUAU [Sensor 3 - 95] (puzzle: Sensor v3, turn-off variant 2) |  |  | 16.9 nM | apparent KD of MS2 coat protein [2]: 19.7 nM; apparent KD of MS2 coat protein [4]: 18.6 nM
AAGUACCGUCACGAUAGUGAUGGUACAACAAGCAGUGACACAUGAGGAUCACCCAUGUCCUCAAUUGCUCGUCUUAU [Sensor 3 - 76] (puzzle: Sensor v3, turn-off variant 2) |  |  | 383 nM | apparent KD of MS2 coat protein [2]: 179 nM; apparent KD of MS2 coat protein [4]: 156 nM
AAGUACCGUCACGAUAGUGAUGGUACAGCAAGCAAAUGUACAUGAGGAUCACCCAUGUCCUCUUUUGCUCGUCUUAU [Sensor 3 - 98] (puzzle: Sensor v3, turn-off variant 2) |  |  | 31.1 nM | apparent KD of MS2 coat protein [2]: 49.1 nM; apparent KD of MS2 coat protein [4]: 53.2 nM
AAGUAGACGGUGAGGAUAUAGGUGGAAUGACCCAUUUAGAAGGUACAUGAGGAUCACCCAUGUGGGUAACGUCG [Brourd's EX4 #28] (Eterna round: R97, puzzle: Brourd's mod of Exclusion 4) | 156 nM | 166 nM |  | 
AAGUAGGCAGGAUAUACAUGAGGAUCACCCAUGUGCCCAUGAAAGGUACUUUCGAAAGGUAGAAGGGCCUACAA [ChP 13.04.2015 #5] (puzzle: Exclusion 3) |  |  | 14.6 nM | 
AAGUGACAUGAGGAUCACCCAUGUCAGGAUAUGCGCCGCUUACGCCUAAGUGUAGGGAGCAGAAGGGACAUAGA [EX1 B.2] (Eterna round: R97, puzzle: Exclusion 1) | 30.5 nM | 25.7 nM |  | 
AAGUUACAUGAGGAUCACCCAUGUGAGGAUAUGAGUCAGUCACGGUGACGUGGCUGACUCAGAAGGCACAAAGG [JL-ex1-4.37 salish99 mod] (Eterna round: R97, puzzle: Exclusion 1) | 256 nM | 98.1 nM |  | 
AAUAACAAGCAGAUCCUAAACAUGAGGAUCACCCAUGUGUUCGUCUUGUAAAGUACUAUCACGAAAGUGAUAGUACA (Eterna round: R97, puzzle: Sensor, turn-off variant 1) | 68.7 nM | 66.2 nM |  | 
AAUAACAAGCCGAUCCUUCACAUGAGGAUCACCCAUGUGUUCGUCUUGUAAAGUACUAUCACGAAAGUGAUAGUACA (Eterna round: R97, puzzle: Sensor, turn-off variant 1) | 18 nM | 19.1 nM |  | 
AAUAACAGAGGAUAUACUAUUUUAUGUGUUUAUUGUUUUAAACAUGAGGAUCACCCAUGUAGAAGGCUGAAUAA [JMF 16] (puzzle: Exclusion 2) |  |  | 26.8 nM | 
AAUAACAGAGGAUAUACUAUUUUAUGUGUUUGUUAUUUUAAACAUGAGGAUCACCCAUGUAGAAGGCUGAUUAA [JMF 44] (Eterna round: R96, puzzle: Exclusion 2) | 47.7 nM | 42.7 nM |  | apparent KD of MS2 coat protein [1]: 34.3 nM
AAUAACAGAGGAUAUACUAUUUUAUGUGUUUGUUAUUUUAAACAUGAGGAUCACCCAUGUAGAAGGCUGAUUAA [JMF 44] (puzzle: Exclusion 2) |  |  | 38.5 nM | 
AAUAACAGAGGAUAUACUAUUUUAUGUGUUUGUUAUUUUGAACAUGAGGAUCACCCAUGUAGAAGGCUGAUUGA [JMF 77] (puzzle: Exclusion 2) |  |  | 41.1 nM | 
AAUAACAGAGGAUAUACUAUUUUAUGUGUUUGUUGUUUUAAACAUGAGGAUCACCCAUGUAGAAGGCUGAAUAA [JMF 18] (puzzle: Exclusion 2) |  |  | 20 nM | 
AAUAACAGAGGAUAUACUGUUUUAUGUGUUUAUUGUUUUAAACAUGAGGAUCACCCAUGUAGAAGGCUGAAUAA [JMF 17] (puzzle: Exclusion 2) |  |  | 23.4 nM | 
